{
  "source": "the nanobody polyreactivity screen of Harvey et al. (2022)",
  "data": [
    {"assay": "yeast display, Sf9 membrane polyspecificity reagent, FACS + sequencing; frameworks hold sequencing errors", "procedure,_shortened": "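Polyreactivity labels are assigned by the sorting gate from which each nanobody was recovered. The gates were low and high (top ~1%), set on anti-HA fluorescence for expression and streptavidin fluorescence for reagent binding. Before sorting, galactose-induced (36–48 hours) yeast display cells were stained for 1 hour at 4 °C with 10% biotinylated, detergent-solubilized Sf9 membrane reagent.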", "values": [
      {"sequence": "QVQLVESGGGLVQAGGSLRLSCAASGSIFYNAMGWYRQAPGKERELVAAITSGGRTYYADSVKGRFTISRDNAKNTVYLQMNSLKPEDTAVDYCAADVRRVRVGKYDYWGQGTQVTVSS", "polyreactivity (PSR sort gate)": "high polyreactivity"},
      {"sequence": "QVQLVESGGGLVQAGGSLRLSCAASGSIFYNNAMGWYRQAPGKERELVAAISLRGGSTYYADSVKGRFTISRDNAKNTVYLQMNSLKPEDTAVYYCAAGVRSPFRGGYYWGQGTQVTVSS", "polyreactivity (PSR sort gate)": "high polyreactivity"},
      {"sequence": "QVQLVESGGGLVQAGGSLRLSCAASGSIFYNYSMGWYRQAPGKERELVATITRSDGSTYYADSVKGRFTISRDNAKNTVYLQMNSLKPEDTAVYYCNADSLWDRAFGYYYWGQGTQVTVSS", "polyreactivity (PSR sort gate)": "low polyreactivity"},
      {"sequence": "QVQLVESGGGLVQAGGSLRLSCAASGSIFYPNAMGWYRQAPGKERELVAAISIGGGRTYYADSVKGRFTISRDNAKNTVYLQMNSLKPEDTAVYYCAATRVDSDDRTRFYYWGQGTQVTVSS", "polyreactivity (PSR sort gate)": "high polyreactivity"},
      {"sequence": "QVQLVESGGGLVQAGGSLRLSCAASGSIFYPNVMGWYRQAPGKERELVATISRGGTTNYADSVKGRFTISRDNAKNTVYLQMNRLKPEDTAVYYCAAPIGDVYVGKGYDSWGQGTQVTVSS", "polyreactivity (PSR sort gate)": "low polyreactivity"},
      {"sequence": "QVQLVESGGGLVQAGGSLRLSCAASGSIFYPYAMGWYRQAPGKERELVAAISRSGGSTRYADSVKGRFTISRDNAKNTVYLQMNSLKPEDTAVYYCAVRVFYGVGLIGYYYWGQGTQVTVSS", "polyreactivity (PSR sort gate)": "high polyreactivity"},
      {"sequence": "QVQLVESGGGLVQAGGSLRLSCAASGSIFYPYAMGWYRQAPGKERELVAAISYNGGSTYYADSVKGRFTISRDNAKNTVYLQMNSLKPEETAVYYCAARPYHGKLDYWGQGTQVTVSS", "polyreactivity (PSR sort gate)": "low polyreactivity"},
      {"sequence": "QVQLVESGGGLVQAGGSLRLSCAASGSIFYPYAMGWYRQAPGKERELVAVINDTGSTYYADSVKGRFTISRDNAKNTVYLQMNSLKPEETAVYYCNTATYVDSFPDPGDHWGQGTQVTVSS", "polyreactivity (PSR sort gate)": "low polyreactivity"},
      {"sequence": "QVQLVESGGGLVQAGGSLRLSCAASGSIFYPYVMGWYIQAPGKESELVASISRRGGRTYYADSVKGRFTISRDYAKNTVYLEMNSLKPEDTAVYYCAKRTYDSFYGYYYWGQVTQVTVSS", "polyreactivity (PSR sort gate)": "high polyreactivity"},
      {"sequence": "QVQLVESGGGLVQAGGSLRLSCAASGSIFYQNVMGGYRQAPGKERELVAAISSSGDSTYYADSVKGRFTISRDNAKNTVYLQMNSLKPEDTAVYYCAAEPEYVSGPYDYWGQGTQVTVSS", "polyreactivity (PSR sort gate)": "low polyreactivity"},
      {"sequence": "QVQLVESGGGLVQAGGSLRLSCAASGSIFYQYAMGWYRQAPGKERELVAAISQNGGRTYYADSVKGRFTISRDNAKNKVYLQMNRLKPEDTAVYYFAARHAPTRYGYWGQGTEVTVSS", "polyreactivity (PSR sort gate)": "high polyreactivity"},
      {"sequence": "QVQLVESGGGLVQAGGSLRLSCAASGSIFYRNAMGGYRQAPGKERELVAAIAGTGGSTYYADSVKGRFTISRDNAKNTVYLQMNSLKPEDTAVYYCASGVTYRHDYWRQGTQVTVSS", "polyreactivity (PSR sort gate)": "high polyreactivity"},
      {"sequence": "QVQLVESGGGLVQAGGSLRLSCAASGSIFYRNAMGWYRQAPGKERELVAAISSDGSTNYADSVKGRFTISRDNAKNTVYLQMNSLKPEDTAVYYCNVPYYLPSYLSGYDYWGQGTQVTVSS", "polyreactivity (PSR sort gate)": "low polyreactivity"},
      {"sequence": "QVQLVESGGGLVQAGGSLRLSCAASGSIFYRNAMGWYRQAPGKERELVAAITSSGGSTYYADSVKGRFTISRDNAKNTVYLQMNSLKPEDTAVYYCATRGWSKQLYGGYTQYYYWGQGTQVTVSS", "polyreactivity (PSR sort gate)": "high polyreactivity"},
      {"sequence": "QVQLVESGGGLVQAGGSLRLSCAASGSIFYRNAMGWYRQAPGKERELVAAITSSGGSTYYADSVKGRFTISRDNAKYTVYFQMNSLKPEDTAVYYCNSVVTKFAKCRFLYYYWGQGTQVTVSS", "polyreactivity (PSR sort gate)": "high polyreactivity"},
      {"sequence": "QVQLVESGGGLVQAGGSLRLSCAASGSIFYRNAMGWYRQAPGKERELVAVITRRGGRTYYADSVKGRFTISRDNAKNTVDLQMNSLKPEDTAVYYCNADTANYADGLDYWGQGTQVTVSS", "polyreactivity (PSR sort gate)": "low polyreactivity"},
      {"sequence": "QVQLVESGGGLVQAGGSLRLSCAASGSIFYRNTMGWYRQAPGKERELVAAITSGGGTNYADSVKGRFTISRDNAKNTVYLQMNSLKPEDTAVYYCAASRQYTVGFYSWGQGTQVTVSS", "polyreactivity (PSR sort gate)": "high polyreactivity"},
      {"sequence": "QVQLVESGGGLVQAGGSLRLSCAASGSIFYRNTMGWYRQAPVKERELVAAITSSGDSTYYADSVKGRFTISRDNAKNTVYFQMNSLKPEDTAVYYCAKDQHDFLEALYDSWGQGTQVTVSS", "polyreactivity (PSR sort gate)": "low polyreactivity"},
      {"sequence": "QVQLVESGGGLVQAGGSLRLSCAASGSIFYRNVMGWYRQAPGKERELVAAISWSGGSTYYADSVKGRFTISRDKSKNTVYLQMNSLKPEDTAVYYCAADIPKTCYPYAFEYWGQGTQVTVSS", "polyreactivity (PSR sort gate)": "low polyreactivity"},
      {"sequence": "QVQLVESGGGLVQAGGSLRLSCAASGSIFYRYAMGWYRQAPGKERELVAAIRSRTGRTYYADSVKGRFTISRDNAKNTVYLQMNCLNPEDTAVYYCAADKYFSARFDYWGQGTQVTVSS", "polyreactivity (PSR sort gate)": "high polyreactivity"},
      {"sequence": "QVQLVESGGGLVQAGGSLRLSCAASGSIFYRYAMGWYRQAPGKERELVAAISFRTGSTYYADSVKGRFTISRDNAKNTVYFQMNSLKPEDTAVYYCAAEQLSTLRQRFDSWGQGTQVTVSS", "polyreactivity (PSR sort gate)": "high polyreactivity"},
      {"sequence": "QVQLVESGGGLVQAGGSLRLSCAASGSIFYRYAMGWYRQAPGKERELVAAISYSGGSTYYADSVKGRFTISRDNAKNTVYLQMNSQKPEDTAVYYCAKDYPPPISDYSRYYGYGYWGKGTQVTVSS", "polyreactivity (PSR sort gate)": "low polyreactivity"},
      {"sequence": "QVQLVESGGGLVQAGGSLRLSCAASGSIFYRYAMGWYRQAPGKERELVATIRSGGSTNYADSVKGRFTISRDNAKNTVYLQMKSLKPEDTAVYYCAAVTPETQPDSGPVPPMDSWGQGTQVTVSS", "polyreactivity (PSR sort gate)": "low polyreactivity"},
      {"sequence": "QVQLVESGGGLVQAGGSLRLSCAASGSIFYRYSMGWYRPAPGKESELVATITQSGVTTYYADSVKGRFTISRDNAKNTVYLELNSVKPEDTAVYYCAASYYYYLGPFFRKFDWGQGTQVTVSS", "polyreactivity (PSR sort gate)": "low polyreactivity"},
      {"sequence": "QVQLVESGGGLVQAGGSLRLSCAASGSIFYSNAMGWYRQAPGKEREFVATITQTGSSTYDADSVKGRFTISRDNAKNTVYLQMNSLKPEVTAVYYCAVDWILYEYEDDFWYRYDYWGQGTQVTVSS", "polyreactivity (PSR sort gate)": "low polyreactivity"},
      {"sequence": "QVQLVESGGGLVQAGGSLRLSCAASGSIFYSNAMGWYRQAPGKERELVAAISGSGGTTYYADSVKGRFTISRDNAKNTVYIQMNSLKPEDTAVYYCAAKPRVRVRLSDYWGQGTQVTVSS", "polyreactivity (PSR sort gate)": "high polyreactivity"},
      {"sequence": "QVQLVESGGGLVQAGGSLRLSCAASGSIFYSNTMGWYSQAPGKERELVAAISSSSGRTYYADSVKGRFTISRDNAKNTVYLQMNSLKPEDTAVYYCARRYGWGQGTQVTVSS", "polyreactivity (PSR sort gate)": "high polyreactivity"},
      {"sequence": "QVQLVESGGGLVQAGGSLRLSCAASGSIFYSNVMGWYRQAPGKERELVASITNGGGTYYADSVKGRFTISRDNAKNTVYLQMNSLKPEDTAVYYCAADPDRTAYDYWGQGTQVTVSS", "polyreactivity (PSR sort gate)": "low polyreactivity"},
      {"sequence": "QVQLVESGGGLVQAGGSLRLSCAASGSIFYSYAKGSYLQAPGKERELVADITFSGVSTYYADSVKGRFTISRDNAKNTVYLQMKSLKTEDTAVYYGAADGVSRWYLYRWYDYDYWGQGTQVTVSS", "polyreactivity (PSR sort gate)": "low polyreactivity"},
      {"sequence": "QVQLVESGGGLVQAGGSLRLSCAASGSIFYSYAMGWYIQAPGKERELVAVISSGGRTNYADSVKGRFTISRDNAKNTVYLQMNSLKPEDTAVYYCAARNYLYRYARAYDYWGQGTQVTVSS", "polyreactivity (PSR sort gate)": "high polyreactivity"},
      {"sequence": "QVQLVESGGGLVQAGGSLRLSCAASGSIFYSYAMGWYRQAPGKERELVADITITGSTYYADSVKGRFTISRDNAKNTVYLQMNSLKPDDTAVYYCNAVLAPGGYDYWGQGTQVTVSS", "polyreactivity (PSR sort gate)": "low polyreactivity"},
      {"sequence": "QVQLVESGGGLVQAGGSLRLSCAASGSIFYTNAMGWYRQAPGKERELVAAISCSGDSTYYADSVKGRFTISRDNAKNTVYLQMNSLKPEDTAVYYCNADRRSYNGFRYYYWGQGTQVTVSS", "polyreactivity (PSR sort gate)": "low polyreactivity"},
      {"sequence": "QVQLVESGGGLVQAGGSLRLSCAASGSIFYTNAMGWYRQAPGKERELVAAISISGSTYYADSVKGRFTISRDNAKNTVYLQMNSLKPEDTAVYYCAAGPGYVRYPRSGVWYVTLYDYWGQGTQVTVSS", "polyreactivity (PSR sort gate)": "high polyreactivity"},
      {"sequence": "QVQLVESGGGLVQAGGSLRLSCAASGSIFYTNAMGWYRQAPGKERELVAAYADSVKGRFTISRDNAKNTVYLQMNSLKPEDTAVYYCNAVLPIYRYLYEGDYWGQGTQVTVSS", "polyreactivity (PSR sort gate)": "low polyreactivity"},
      {"sequence": "QVQLVESGGGLVQAGGSLRLSCAASGSIFYTNAMGWYRQAPGKERELVASITGGGSTKYADSVKGRFTISRDNAKNTVYLQMNSLKPEDTAVYYCAKRRYWPLDWGQGTQVTVSS", "polyreactivity (PSR sort gate)": "high polyreactivity"},
      {"sequence": "QVQLVESGGGLVQAGGSLRLSCAASGSIFYTYAMGWYRQAPGKERELVAAISRSGGSTYYADSVKGRFTISRDNAKNTVYVQMNSLKPEETAVYYCAAVSYRGRGYWGQGTQVTVSS", "polyreactivity (PSR sort gate)": "high polyreactivity"},
      {"sequence": "QVQLVESGGGLVQAGGSLRLSCAASGSIFYTYTMGWYRQAPGKERELVAAISWSGGSTYYADSVKGRFTISRDNAKNTVYLQMISLKPEDTAVYYCAAYGTGYYGYDYWGQGTQVTVSS", "polyreactivity (PSR sort gate)": "low polyreactivity"},
      {"sequence": "QVQLVESGGGLVQAGGSLRLSCAASGSIFYVNAMGWYRQAPGKERELVAAISVRGGRTYYADSVKGRFTISRDNAKNTVYLQMNSLKPEDTAVYYCATRISTVGRYDYWGQGTQVTVSS", "polyreactivity (PSR sort gate)": "high polyreactivity"},
      {"sequence": "QVQLVESGGGLVQAGGSLRLSCAASGSIFYVNTMVWYRQAPGKERELVAGITSRGGSTYYADSVKGRFTISRDNAKNSVYLQMNSLKPEDTAVYYCAKRAYGTALYRGYGYWGQGTQVTVSS", "polyreactivity (PSR sort gate)": "low polyreactivity"},
      {"sequence": "QVQLVESGGGLVQAGGSLRLSCAASGSIFYVYAMGWYGQAPGKDRELVASISWGDSSTYYADSVKGRFTISRDTAKNTVYLQMNSLKPEDTAVYYCAADEYRQYALYDYWGQGTQVTVSS", "polyreactivity (PSR sort gate)": "low polyreactivity"},
      {"sequence": "QVQLVESGGGLVQAGGSLRLSCAASGSIFYVYAMGWYRQAPGKERELVAAITARVTSTYYADSVKGRFTISRDNAKNTVYLQMNSLKPEDTAVYSCAARTSYKTGYRKYDYWGQATQVTVSS", "polyreactivity (PSR sort gate)": "low polyreactivity"},
      {"sequence": "QVQLVESGGGLVQAGGSLRLSCAASGSIFYVYAMGWYRQAPGKERELVAAITNYADSVKGRFTISRDNAKNTVYLQMNSLKPEDTAVYYCAADWWRVEMDYWGQVTQVTVSS", "polyreactivity (PSR sort gate)": "low polyreactivity"},
      {"sequence": "QVQLVESGGGLVQAGGSLRLSCAASGSIFYVYAMGWYRQAPGKERELVASINKYGGSTYYADSVKGRFTISRDNAKNTVYLQMNSLKPADTAVYYCAARTGWPRVGFQYPAHVGFDYWGQGTQVTVSS", "polyreactivity (PSR sort gate)": "low polyreactivity"}
    ]}
  ]
}
